Results: paper doi:10.1101/2022.10.07.511266

Target: integrin αIIbβ3 (human) (UniProt P05106)
Experiment: epifluorescence microscopy of co-clustering on giant unilamellar vesicles

Row | stoichiometry N (talin:integrin) | stoichiometry N (scale: talin:integrin) | stoichiometry N (kindlin:integrin) | stoichiometry N (scale: kindlin:integrin) | Substance
1 | 2 | 3 | – | – | eGFP-talin F2-F3 (domain or fragment)
2 | – | – | 3 | 4 | mCherry-kindlin-2 (from UniProt Q96AC1 1-680) (natural protein)
